For orientation: Kd means the equilibrium constant for the complex coming apart. Read a high Kd as weaker binding. In general, EC50 refers to the concentration at which the effect is half-maximal. A low value points to higher potency in that assay. One may read the EC50 (read off the curve) as the concentration needed to bring the measured effect to its halfway point. A low value points to higher potency in that assay.

Assay [1] concerns the target T1, dimeric murine ICOS antigen Fc(kih) fusion molecule (murine, biotinylated at the C-terminal Avi tag (BirA co-expression)).
T1 construct: also called murine ICOS proteins; biotinylated ICOS-Fc fusion protein
In words: SPR, ProteOn XPR36, 25 C, one-shot kinetics, Fab dilution series over murine ICOS protein, 1:1 Langmuir. The protocol:
For one-shot kinetics measurements, dilution series of purified monoclonal antibody Fab fragments were injected simultaneously along separate channels 1-5. Buffer (PBST) was injected along the sixth channel to provide an “in-line” blank for referencing. Association rate constants (kₒₙ) and dissociation rate constants (koff) were calculated using a simple one-to-one Langmuir binding model in ProteOn Manager v3.1 software by simultaneously fitting the association and dissociation sensorgrams. The equilibrium dissociation constant (KD) was calculated as the ratio koff/kₒₙ (Table 18).
(In general: Surface plasmon resonance follows binding to a sensor surface in real time, without labels.)

Assay [2] concerns the target T2, murine ICOS (murine, UniProt Q9WVS0 21-200).
T2 construct: in the splenocyte assays the endogenous protein on murine T cells; also called mICOS
T2 sequence: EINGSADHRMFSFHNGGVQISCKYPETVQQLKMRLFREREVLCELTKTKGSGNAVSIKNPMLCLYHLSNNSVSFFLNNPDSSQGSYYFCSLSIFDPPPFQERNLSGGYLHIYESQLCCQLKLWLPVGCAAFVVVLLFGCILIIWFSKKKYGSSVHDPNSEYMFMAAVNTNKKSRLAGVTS
Briefly: binding to CHO K1 cells expressing murine ICOS.

Assay [3] addresses T2, murine ICOS. In words: flow cytometry on CHO-K1 transfectants expressing murine ICOS. The protocol:
(§1) The staining was fixed for 20 min at 4° C. in the dark, using 75 μl of 1% PFA in FACS buffer per well. Fluorescence was analyzed by FACS using a FACS Fortessa (Software FACS Diva). Binding curves were obtained using GraphPadPrism6 and are shown in FIGS. 6A-6C and 7A-7B, respectively.
On the technique in general: Flow cytometry measures light scatter and fluorescence of single cells or particles in a stream.

Assay [4] deals with T3, murine FAP (mFAP) (murine, UniProt P97321 1-761).
T3 construct: Expressed on 3T3-mFAP / NIH/3T3-moFAP cl.34 cells; also called mouse FAP; moFAP
T3 sequence (P97321 whole entry): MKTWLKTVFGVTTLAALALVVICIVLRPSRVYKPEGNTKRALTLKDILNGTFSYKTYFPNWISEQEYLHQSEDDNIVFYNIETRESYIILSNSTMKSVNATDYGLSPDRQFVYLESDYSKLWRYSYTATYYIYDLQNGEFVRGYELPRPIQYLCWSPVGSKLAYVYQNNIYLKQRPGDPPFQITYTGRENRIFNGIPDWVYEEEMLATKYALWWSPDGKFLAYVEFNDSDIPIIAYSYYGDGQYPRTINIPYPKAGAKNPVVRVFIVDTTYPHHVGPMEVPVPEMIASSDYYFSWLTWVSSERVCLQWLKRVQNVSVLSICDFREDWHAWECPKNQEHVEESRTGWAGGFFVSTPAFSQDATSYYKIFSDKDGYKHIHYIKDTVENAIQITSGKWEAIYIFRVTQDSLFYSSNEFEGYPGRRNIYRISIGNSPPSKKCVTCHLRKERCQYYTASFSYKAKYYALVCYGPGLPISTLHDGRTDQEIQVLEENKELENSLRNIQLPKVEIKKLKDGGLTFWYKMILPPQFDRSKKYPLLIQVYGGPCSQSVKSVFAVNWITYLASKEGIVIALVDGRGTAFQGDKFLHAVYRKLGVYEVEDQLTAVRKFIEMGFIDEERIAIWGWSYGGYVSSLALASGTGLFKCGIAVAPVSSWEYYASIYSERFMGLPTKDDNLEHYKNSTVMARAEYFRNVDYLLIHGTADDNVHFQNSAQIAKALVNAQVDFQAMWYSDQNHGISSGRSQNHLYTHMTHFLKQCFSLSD
In words: flow cytometry on 3T3-mFAP cells stably overexpressing murine FAP, median fluorescence intensity. The protocol:
as §1

Assay [5] deals with T3, murine FAP (mFAP). Briefly: flow cytometry on 3T3-mFAP cells. The protocol: as §1
Assay [6] deals with T3, murine FAP (mFAP). Briefly: flow cytometry on NIH/3T3-moFAP cells stably overexpressing murine FAP, PE secondary, axis % Binding to murine FAP. Here is the method:
(§2) Briefly, adherent MKN45, NIH/3T3-moFAP or CHO-mICOS cells were detached using trypsin (Gibco, 25300-054), washed and 0.1 million cells were transferred into a 96-round bottom well-plate. […] Thereafter, cells were washed twice with cold PBS 0.1% BSA and further incubated for further 30 min at 4° C. with a labeled secondary antibody (PE-conjugated, #715-116-150 from Jackson Immuno Research Lab, diluted 1 to 50 in FACS buffer). Cells were washed with FACS buffer and the staining was fixed for 20 min at 4° C. in the dark, using 75 μl of 1% PFA in FACS buffer per well. Cells were washed twice with FACS Buffer and re-suspended in FACS Buffer for analysis.
(§3) Fluorescence was analyzed by FACS using a FACS Fortessa (Software FACS Diva). Binding curves and EC₅₀ values were obtained using GraphPadPrism6.

For assay [7], the target named is T2, murine ICOS. Briefly: cell-based or functional assay.
Assay [8] concerns the target T2, murine ICOS. Briefly: flow cytometry on CHO cells expressing murine ICOS. Here is the method:
as §2, §3

Assay [9] has as its target T3, murine FAP (mFAP). Briefly: flow cytometry on NIH/3T3-moFAP cl.34 cells. Here is the method: as §2, §3
Assay [10] has as its target T2, murine ICOS. Briefly: flow cytometry on CHO cells stably overexpressing murine ICOS, PE secondary, axis % Binding to murine ICOS. The protocol:
as §2, §3

B1: Fab fragment 16E09 (Fab, V domains shown)
VH: EVQLVQSGAEVKKPGESLKISCKGSGYSFTSYWIGWVRQMPGKGLEWMGIIYPGDSDTRYSPSFQGQVTISADKSISTAYLQWSSLKASDTAMYYCARSSGPYGLYLDYWGQGTLVTVSS
VL: not shown
notes: Phage-derived Fab expressed in E. coli TG1 and purified on His GraviTrap columns; also called 16E09 anti-ICOS antibody as Fab fragment; purified Fab fragment 16E09
The molecule B1 showed a dissociation constant Kd in assay [1] of 293 nM. Moreover, the binding result in the assay with murine ICOS [2] is on record as “binds”.

B2: FAP-targeted mICOSL, mIgG1 DAPG, bivalent murine ICOSL (Gly47-Lys279), monovalent FAP (28H1) c-terminal fused of the heavy chain C region (Fc fusion)
chain 1: ETEVGAMVGSNVVLSCIDPHRRHFNLSGLYVYWQIENPEVSVTYYLPYKSPGINVDSSYKNRGHLSLDSMKQGNFSLYLKNVTPQDTQEFTCRVFMNTATELVKILEEVVRLRVAANFSTPVISTSDSSNPGQERTYTCMSKNGYPEPNLYWINTTDNSLIDTALQNNTVYLNKLGLYDVISTLRLPWTSRGDVLCCVENVALHQNITSISQAESFTGNNTKNPQETHNNELKGSPGSSSSSGSADGCKPCICTVPEVSSVFIFPPKPKDVLTITLTPKVTCVVVAISKDDPEVQFSWFVDDVEVHTAQTKPREEQINSTFRSVSELPIMHQDWLNGKEFKCRVNSAAFGAPIEKTISKTKGRPKAPQVYTIPPPKKQMAKDKVSLTCMITNFFPEDITVEWQWNGQPAENYKNTQPIMKTDGSYFVYSKLNVQKSNWEAGNTFTCSVLHEGLHNHHTEKSLSHSPGGGGGSGGGGSGGGGSGGGGSEVQLLESGGGLVQPGGSLRLSCAASGFTFSSHAMSWVRQAPGKGLEWVSAIWASGEQYYADSVKGRFTISRDNSKNTLYLQMNSLRAEDTAVYYCAKGWLGNFDYWGQGTLVTVSS
chain 2: ETEVGAMVGSNVVLSCIDPHRRHFNLSGLYVYWQIENPEVSVTYYLPYKSPGINVDSSYKNRGHLSLDSMKQGNFSLYLKNVTPQDTQEFTCRVFMNTATELVKILEEVVRLRVAANFSTPVISTSDSSNPGQERTYTCMSKNGYPEPNLYWINTTDNSLIDTALQNNTVYLNKLGLYDVISTLRLPWTSRGDVLCCVENVALHQNITSISQAESFTGNNTKNPQETHNNELKGSPGSSSSSGSAGSPGSSSSSGSADGCKPCICTVPEVSSVFIFPPKPKDVLTITLTPKVTCVVVAISKDDPEVQFSWFVDDVEVHTAQTKPREEQINSTFRSVSELPIMHQDWLNGKEFKCRVNSAAFGAPIEKTISKTKGRPKAPQVYTIPPPKEQMAKDKVSLTCMITNFFPEDITVEWQWNGQPAENYDNTQPIMDTDGSYFVYSDLNVQKSNWEAGNTFTCSVLHEGLHNHHTEKSLSHSPGGGGGSGGGGSGGGGSGGGGSEIVLTQSPGTLSLSPGERATLSCRASQSVSRSYLAWYQQKPGQAPRLLIIGASTRATGIPDRFSGSGSGTDFTLTISRLEPEDFAVYYCQQGQVIPPTFGQGTKVEIK
notes: also called FAP-mICOS-L; FAP-mICOSL
Consider B2, for which the EC50 came out at 28.1 nM in the assay with murine ICOS [3] and 71.8 nM with murine FAP (mFAP) [5]. Moreover, the concentration giving a half-maximal response (EC50 (read off the curve)) with murine FAP (mFAP) [4] is about 30 nM.

B3: ICOS(16E09)-FAP(28H1) 2+1, FAP-targeted anti-murine ICOS_2+1, mIgG1 DAPG, bivalent murine ICOS (16E09), monovalent FAP (28H1) (bispecific antibody)
heavy 1: EVQLVQSGAEVKKPGESLKISCKGSGYSFTSYWIGWVRQMPGKGLEWMGIIYPGDSDTRYSPSFQGQVTISADKSISTAYLQWSSLKASDTAMYYCARSSGPYGLYLDYWGQGTLVTVSSAKTTPPSVYPLAPGSAAQTNSMVTLGCLVKGYFPEPVTVTWNSGSLSSGVHTFPAVLQSDLYTLSSSVTVPSSTWPSQTVTCNVAHPASSTKVDKKIVPRDCGCKPCICTVPEVSSVFIFPPKPKDVLTITLTPKVTCVVVAISKDDPEVQFSWFVDDVEVHTAQTKPREEQINSTFRSVSELPIMHQDWLNGKEFKCRVNSAAFGAPIEKTISKTKGRPKAPQVYTIPPPKEQMAKDKVSLTCMITNFFPEDITVEWQWNGQPAENYDNTQPIMDTDGSYFVYSDLNVQKSNWEAGNTFTCSVLHEGLHNHHTEKSLSHSPGGGGGSGGGGSGGGGSGGGGSEIVLTQSPGTLSLSPGERATLSCRASQSVSRSYLAWYQQKPGQAPRLLIIGASTRATGIPDRFSGSGSGTDFTLTISRLEPEDFAVYYCQQGQVIPPTFGQGTKVEIK
heavy 2: EVQLVQSGAEVKKPGESLKISCKGSGYSFTSYWIGWVRQMPGKGLEWMGIIYPGDSDTRYSPSFQGQVTISADKSISTAYLQWSSLKASDTAMYYCARSSGPYGLYLDYWGQGTLVTVSSAKTTPPSVYPLAPGSAAQTNSMVTLGCLVKGYFPEPVTVTWNSGSLSSGVHTFPAVLQSDLYTLSSSVTVPSSTWPSQTVTCNVAHPASSTKVDKKIVPRDCGCKPCICTVPEVSSVFIFPPKPKDVLTITLTPKVTCVVVAISKDDPEVQFSWFVDDVEVHTAQTKPREEQINSTFRSVSELPIMHQDWLNGKEFKCRVNSAAFGAPIEKTISKTKGRPKAPQVYTIPPPKKQMAKDKVSLTCMITNFFPEDITVEWQWNGQPAENYKNTQPIMKTDGSYFVYSKLNVQKSNWEAGNTFTCSVLHEGLHNHHTEKSLSHSPGGGGGSGGGGSGGGGSGGGGSEVQLLESGGGLVQPGGSLRLSCAASGFTFSSHAMSWVRQAPGKGLEWVSAIWASGEQYYADSVKGRFTISRDNSKNTLYLQMNSLRAEDTAVYYCAKGWLGNFDYWGQGTLVTVSS
light: not shown
notes: Murine IgG1 DAPG DDKK; also called ICOS(16E09)-FAP(28H1) 2 + 1 muIgG1 DAPG
In the case of B3, in the assay with murine FAP (mFAP) [6], the “EC50 (read off the curve)” value was about 3 nM. In the assay with murine ICOS [7], the “Fold increase vs TCB only at 3 nM CEA- or FAP-ICOS, % CD69^+CD4^+” value worked out at 1.1 fold; the “Fold increase vs TCB only at 3 nM CEA- or FAP-ICOS, % CD69^+CD8^+” value is 2.3 fold; the “Fold increase vs TCB only at 75 nM CEA- or FAP-ICOS, % CD69^+CD4^+” value is 1.1 fold; the “Fold increase vs TCB only at 75 nM CEA- or FAP-ICOS, % CD69^+CD8^+” value came out at 2.4 fold. This molecule showed an EC50 with murine ICOS [8] of 2.88 nM. The molecule further showed a concentration giving a half-maximal response (EC50) in the assay with murine FAP (mFAP) [9] of 2.86 nM. Besides, the “EC50 (read off the curve)” value in the assay with murine ICOS [10] was about 3 nM.

B4: ICOS(16E09)-FAP(28H1) 1+1, FAP-targeted anti-murine ICOS_1+1, mIgG1 DAPG, monovalent murine ICOS (16E09), monovalent FAP (28H1) (bispecific antibody)
heavy 1: EVQLVQSGAEVKKPGESLKISCKGSGYSFTSYWIGWVRQMPGKGLEWMGIIYPGDSDTRYSPSFQGQVTISADKSISTAYLQWSSLKASDTAMYYCARSSGPYGLYLDYWGQGTLVTVSSAKTTPPSVYPLAPGSAAQTNSMVTLGCLVEGYFPEPVTVTWNSGSLSSGVHTFPAVLQSDLYTLSSSVTVPSSTWPSQTVTCNVAHPASSTKVDEKIVPRDCGCKPCICTVPEVSSVFIFPPKPKDVLTITLTPKVTCVVVAISKDDPEVQFSWFVDDVEVHTAQTKPREEQINSTFRSVSELPIMHQDWLNGKEFKCRVNSAAFGAPIEKTISKTKGRPKAPQVYTIPPPKEQMAKDKVSLTCMITNFFPEDITVEWQWNGQPAENYDNTQPIMDTDGSYFVYSDLNVQKSNWEAGNTFTCSVLHEGLHNHHTEKSLSHSP
heavy 2: EIVLTQSPGTLSLSPGERATLSCRASQSVSRSYLAWYQQKPGQAPRLLIIGASTRATGIPDRFSGSGSGTDFTLTISRLEPEDFAVYYCQQGQVIPPTFGQGTKVEIKSSAKTTPPSVYPLAPGSAAQTNSMVTLGCLVKGYFPEPVTVTWNSGSLSSGVHTFPAVLQSDLYTLSSSVTVPSSTWPSQTVTCNVAHPASSTKVDKKIVPRDCGCKPCICTVPEVSSVFIFPPKPKDVLTITLTPKVTCVVVAISKDDPEVQFSWFVDDVEVHTAQTKPREEQINSTFRSVSELPIMHQDWLNGKEFKCRVNSAAFGAPIEKTISKTKGRPKAPQVYTIPPPKKQMAKDKVSLTCMITNFFPEDITVEWQWNGQPAENYKNTQPIMKTDGSYFVYSKLNVQKSNWEAGNTFTCSVLHEGLHNHHTEKSLSHSP
light 1: not shown
light 2: EVQLLESGGGLVQPGGSLRLSCAASGFTFSSHAMSWVRQAPGKGLEWVSAIWASGEQYYADSVKGRFTISRDNSKNTLYLQMNSLRAEDTAVYYCAKGWLGNFDYWGQGTLVTVSSASDAAPTVSIFPPSSEQLTSGGASVVCFLNNFYPKDINVKWKIDGSERQNGVLNSWTDQDSKDSTYSMSSTLTLTKDEYERHNSYTCEATHKTSTSPIVKSFNRNEC
notes: Murine IgG1 DAPG DDKK; also called ICOS(16E09)-FAP(28H1) 1 + 1 muIgG1 DAPG
With B4, the “EC50 (read off the curve)” value with murine FAP (mFAP) [6] is about 0.1 nM. Also, in the assay with murine ICOS [7], the “Fold increase vs TCB only at 3 nM CEA- or FAP-ICOS, % CD69^+CD4^+” value came to 1.2 fold; the “Fold increase vs TCB only at 3 nM CEA- or FAP-ICOS, % CD69^+CD8^+” value was 1.9 fold; the “Fold increase vs TCB only at 75 nM CEA- or FAP-ICOS, % CD69^+CD4^+” value came to 1.2 fold; the “Fold increase vs TCB only at 75 nM CEA- or FAP-ICOS, % CD69^+CD8^+” value turned out to be 1.9 fold. In the assay with murine ICOS [8], a half-maximal response (EC50) required 17.1 nM. The molecule also had an EC50 with murine FAP (mFAP) [9] of 0.142 nM.

Values taken from patent US20200306373A1 (Hoffmann-La Roche, published 2020).
